One assay deals with A431. In words: ADC cancer cell killing, Cell-Titer-Glo 2.0. The format is cell-based, human. As for the experimental part: (§1) Human bile duct cancer cells HuCC-T1 available from Zhejiang MeisenCTCC, human epidermal cancer cells A431 available from Procell Life Science&Technology Co.,Ltd. (Wuhan) and Chinese hamster ovary cells CHO from negative control ATCC were seeded into a 96-well plate at 2500 cells/well. It was then incubated in a 5% CO2 incubator overnight at 37°C. Half of the medium was removed from the cell plate on the next day. A 2x hIgG1 (negative control antibody, provided by Biointron), Vatelizumab, FS002-A1-vc-MMAE, FS002-A15-vc-MMAE, FS002-A36-vc-MMAE, Vatelizumab-ve-MMAE, hIgG1-vcMMAE (negative control ADC, provided by ChemPartner) was prepared with a complete culture medium, and then diluted at a 3-fold gradient with 11 specific concentration points in total. Serial dilutions of the above molecules were added to the appropriate wells, and it was then incubated in a 5% CO2 incubator for 5 days at 37°C. After the incubation, 100 uL of Cell-Titer-Glo 2.0 reagent was added to the 96-well plate. It was then well mixed on a plate shaker for 2 minutes, and finally equilibrated at room temperature for 10 minutes. Readings were taken using a microplate reader. Finally, IC50 was used to compare the biological activity of the ADC against each cell line.

The next assay concerns HuCC-T1. Briefly: ADC cancer cell killing, Cell-Titer-Glo 2.0. The format is cell-based, human. As for the experimental part: as §1
For another assay, the system named is CHO. In words: ADC cell killing in negative control cells, Cell-Titer-Glo 2.0. It counts as cell-based, Chinese hamster. As for the experimental part: as §1
Where [1] appears, read: result in words, summary of Table 9.

B1: Vatelizumab-ve-MMAE: antibody-drug conjugate of the positive control antibody Vatelizumab with vc-MMAE as the linker-payload (conjugate, chains of the INN, looked up)
VH: QVQLQESGPGLVKPSETLSLTCTVSGFSLTNYGIHWIRQPPGKGLEWLGVIWARGFTNYNSALMSRLTISKDNSKNQVSLKLSSVTAADTAVYYCARANDGVYYAMDYWGQGTLVTVSS
VL: DFVMTQSPAFLSVTPGEKVTITCSAQSSVNYIHWYQQKPDQAPKKLIYDTSKLASGVPSRFSGSGSGTDYTFTISSLEAEDAATYYCQQWTTNPLTFGQGTKVEIK
modifications: vc-MMAE payload
Consider B1, for which the half-inhibitory concentration (IC50) with A431 (human epidermal cancer cells A431, incubated 5 days at 37°C) was 0.08 nM; with HuCC-T1 (Human bile duct cancer cells HuCC-T1, incubated 5 days at 37°C), 0.89 nM; in the assay on CHO (negative control cells CHO, incubated 5 days at 37°C), over 207 nM. In the assay on A431 (setting [1]), the “killing effect on A431” value was “good killing effect”. In addition, the “killing effect on HuCC-T1” value with HuCC-T1 (setting [1]) was “good killing effect”. In addition, the “killing effect on negative control cells CHO” value with CHO (setting [1]) is listed as “no killing effect”.

The values above are taken from patent EP4545563A1, “ANTIBODIES TARGETING ITGA2 AND ANTIBODY-DRUG […]” (Foreseen Technology (Beijing) Co., Ltd., priority 2022, dated 2024).
